This data set in a line: label from the status in PepcDB records.
Consider “MIFMNMVNRERELQALKKRLSSNDLELIIIYGRRRIGKTFLIINAVNGYDFIYYLATEKNNLRKFKELTESKYEDIKYVKEDWEAIFHYLRDKIIIIDEFPYMIKEDESILSTFQKIVDETLKGSKTKLILLGSSISMMEDAISYKSPLYGRRTASIELKELKFKDLKGFNFSLIDAIHVYGFAGGVPFYLTKAKTPFLKWINAELKEVDSFIKDEIDFMLRYEFSEIGTYKEILHAISSGKNTLGEIKDFVRISGDVSSYLNKLEKIGIIGKEFPYKMKKGARYYIKDNFTLFWFTFIYPNLSLIEEGIYEIKEDEYNVYLGRIFEKIAREYVEDVYKVKVERLWFKDVEIDIYGDGIAGECKWSEGINGEKVLYELKRKVEDLGLDVKKYIIFAKSFSKTNEEAEFIDLKKLEQWYRTLEHHHHHH”, for which the protein production entry is “not failed”.

As for “DHPEEGDTAPDFTRPLVNDEFWEDESLASVCADSDRVVLVFHAMDGAFPATYIWNEIRDRAWHEQATVVGISISTPYEHKQLLKEREIEGDYRLFSDPANGVAQQYSIDMALDGMAGIEEPRPSVFVLDSDRTIEYAWVAQEWPDFPDYDDVEAQL”, the protein production result is reported as “failed”.

Consider “MSQSSKRKNDSVVETFKDIIPLTFGEEIGNAASHGAAALLTLFILPYAAVHSFNNGGTLESISVSVYVISIFMMFISSTIYHSMQNNTSHKYILRIIDHSMIYVAISGTYTPVLLSVVGGWLGWLVTILLWGTTLWGILYKSIATKVNHRLSLIVYLVMGWVGIIFLPIIIMRTSWWFIFFIFLGGLSYTIGAWFYAQKNKPYFHMIWHIFIVLASFLHMIGIFYFM”, for which the protein production result was “failed”.

Take “AHADFEHLPVALMKFGSDGSLRVANRAARDLLGLGHDAQPDFSDLFEGLGRAVRDWLADVAAERMPGGAEVLRLRRSEEEVFLQIALRRIVEHGRPLVLAVLNDAT”: the protein production result was “failed”.

Take “MGVHIDSVVFSRAGALLTLKDEAEISEIRVYSESEEIASQEIGKNKDNVFVSFNWDPEARYRFEVITGSGASGTIEAYAPSKPALKKEYTIELEDVTPGDIEKTSTNVEGALKFSPDSEYLAIGTNGGSLKLIKVATGEKVWEKQLVKGIADARIADIEFSEDGKRLFVGEESPDAFLYCFDLEGTEIWKYGAGKELGSDLKYMPAMKKIKLDSEGNIYVAASRACGYIGEKYKYLARIYSFDPEGNLRWKFPESEYMDSGVTWIDATPDGKYAVFGTTCFTETEKWREGTVHALNGNTGQEHWSYKIQPVEPFFDYSAIWYSTQITPDGEKLITMTSDGRAFLFNNSRIIETGTPEITWQQNISTPIVVSGVPIYGSANYAYIVNDTLIFSIGSTFSKDKNKDAPFEHPSGNSLFAYDYDGNLLWKWRVDGYAGECAVNDRYLVIPLAQNLVTEDRSVHGVYVFDASKSGGASSRLIQTYNTEGITVSADISPDGRYIAALEAPSRLDDGTVLGEYKVHILTLEHHHHHH”: the protein production entry is “not failed”.

With “MFSAKKLSPADKLKNISSMLEEIVEDTTVPRNIRAAADNAKNALHNEEQELIVRSATAIQYLDDISEDPNMPIHTRTQIWGIVSELETIKN”, the protein production entry is recorded as “not failed”.

For the sequence “MFADTCGFMNRSPEHIFGSPEIDYSDVSTGYLEDALIESGERSKRRRLLFEDPSKSFNDDDSQNDWGLHESYSCLNSQFVTPHVNTGERISGVSYCQETISNVYESPDTSVSYDKIYVREKSPTEPSSSNCGNKNKRLITKLVYPFGLVKPGGRENDVTLNDINERILMAPSRPIRHPVGDFASRPCVSGRGPGLSGKAVVALTKIQTQGRGTITIIRTKG”, the protein production entry is “failed”.

With “MGLRALSASVNAFECEKQHGDPKSMRINSVPGGRPPRDGRPSRAGALFGCSSAEALYFGSECRPGPSARRFGDNRAHSSLTYWCGMNTFDFGFDDSEDSPHEDPLEDLVAAYENDPSAYFDSGDLEEIASFYFEEGEMETALEVIDRLIELHPYTSDAWMRRGILLNNLGRPEEALEAYEQALDVNPTDTETLINLGITLDSLGRVDEALEAYDEALSINPLHGEALFNLGVTLERDEQLEAAVEAFQRCADVYPEHPEVWYELGYCYDRLGEDEKSVEAYDNHLDIDPYSKDAWYNRGIVLNRLGRFGEAVESYDMALAIHDEFASAYYNRGNAEANQGDLEAAVESYERVLELEGPDAATYYNLALAYEEQGDLRAARTYYEKTLDLKSNYPEAWYGLGCCFDTDERPEEALECFRYAVNLDANVPKFWTARADCAYKVGKLDEALESYQHAVRLDESNEHAWTGYAETLLEKEQPEEALEAYRQALELDPKSANTYFRQAKALLALGRADESIRALKTAFRLDPAKKEEFQKAYPTLYDNDRVRRLLDLDS”, the protein production result was “failed”.

As to “MGCVRDLTQRGMRQGAKPVRYFGERTDVSDLLAHTLQTVADILGPHGPATKAAEHSYTPNDYSIHFFLQLAVILLACRVTGWFGKKFLAQPQVVGEMIAGVVLGPSLLGLLFPDFQLSLFPKETRNILYVGAQLGVGLYMFLVGASFQAGHFKTKARSAMSVSFAGIAAPFAIAVIITPFLLKVPGLFAPTITPGAATLFMGACIALTAFPMLARIINERGLQKTSLGTLSLTAGAFDDAVSWCVLAVVLAMFGGGPGVAVLAIGGGLLWVLFVLTLGPKILAPLGRMVEREGELSAHALALVILAFCVSAFLMDAVGIHAIFGGFIMGVVMPRGLLTQELKKKVEPLVVVLLLPMFFTYSGLNTRLDMVNSLDLLLIALGILACSILAKWGACYVAARATGEDHATAMGIGALMNSRGLMELIIINIGLQKGIIGPTLFAMLVLMAIVTTMMASPLFEIVYGKKARERGELDAVPDAKRA”, the protein production result is listed as “failed”.

On to “MNTPSRTHLVIIPSYNPGPKVYETVQAARRYWNPVWVVVDGSTDGTWEGLLKLSAEDSGLVVLGMPANRGKGAAVLRGLLTSRRKGFTHALVMDSDGQHPADRIPEFMARSQEEPDAMILGVPVFDDSAPSLRVKGRRISNWWANLETLWCGIGDSLFGFGVYPIQALCVIMQDHQWMRRFDFDPEAAVRLCWAGIRPVNLPVPVYYPKPEEGGTSHFHYWRDNALLTWMHVRLMFGFLARLPILLARIVRRPEILEHHHHHH”, for which the protein production entry was “failed”.

For “MYYNIALAYTHLDIHHLAIHFVNMALEGFRSEYKFRNIINCQILIAVSYTEKGQYEEALKMYESILREATSFADKDVLLAITLSNMGSIYYKKGKYQQAKKYYLDSLQLQKQIDLNYLDTIYEMALVCIKLEELEEARTLIDKGIDAAKQEERFNAKLYLLLMLRYKYFEEAKDYKAFLENEAIPLYKSAGNKIELKKVYVELAEHFSSLSRFEESNRYYRLVIDLMNDNKEE”, the protein production result is “failed”.

Consider “MAQRGDPPPLRQYVAVRARLVGSGLVVGLLLGGLGMAGWTLYTGDARSSEATVFALGAMVFGFGLLGWSGSILAGRGIEAMQEHMDTRSNWTERDSRRAMARLCGGGGGIMVGTSVVAALL”, for which the protein production entry is on record as “failed”.

Consider “MLTHREYFNSKADIWDSLCAPEEKAKLETIIRGLNIAPGSTVLDVGCGTGILIPYLLAAVGPAGRIVALDIAEAMLERAQSKGFPANVEFICADVVSVPYPDATFDEVICNSAFPHFPHKLKALKEMARVLKPGGRVVICHTKARETINNLHRSLGGVIAGDQIPPGSEMMGMLVAAGLTGIEIDEALDYYLASGFKAMYE”, for which the protein production entry is “failed”.

For “MRNKKLIPFEVIEKAVAGEPEAIELVLQHYSPRIKYLSKYRGYINDDIQDRLKTQLIKAILQFRFDR”, the protein production result is on record as “failed”.

For “MEVGMIPRVYLGHEWFGAERILSEYQVPEDCGAQVLFLGIPRNAPEDGGNIEALEYEAYPEMAIKEMEKIRQETIEKFGVKEVFIHHRLGLVKIGEPSFLVLAVGGHREETFKACRYAVDETKKRVPIWKKEIFKEGKGEWVLGEKKNASGQTK”, the protein production result is “not failed”.

With “MDKNIKNKAEELIKDLIQKIDNNPYDAQAYYNLGVALNDAHSAEQAEELFKKALNIFANSKEKSSLMHYGLGNVYYTNSIYDKAIVEFKKVQSEKLKQDSMLMMAQAYYAQENYPQAMMYALTVSENTKHNVDAISLLASCFMATGDLTNARKYYLKALEYDKDNVEVLFQLGVIELSLSGEAGKYFDRVKNLDNEYYKKMQQRLADVQRFLMTQKKGKSDE”, the protein production result is listed as “failed”.

The record behind these values is a protein production outcome set (Wang et al. 2014).
